{
  "source": "paper PMC11273609",
  "about": "“Single-Molecule Detection of the Encounter and Productive Electron Transfer Complexes of a Photosynthetic Reaction Center” (Journal of the American Chemical Society, 2024)",
  "binders": {"B1": {"name": "cytochrome c2 (cyt c2), His6-tagged (natural protein)", "chain": "QEGDPEAGAKAFNQCQTCHVIVDDSGTTIAGRNAKTGPNLYGVVGRTAGTQADFKGYGEGMKEAGAKGLAWDEEHFVQYVQDPTKFLKEYTGDAKAKGKMTFKLKKEADAHNIWAYLQQVAVRP", "notes": "cytochrome c2 of Rhodobacter sphaeroides (gene cycA); the His6-tag follows the C-terminal residue Pro124; Carries a heme cofactor; used pre-reduced (dithionite and phenazine methosulfate) or pre-oxidized (ferricyanide), the redox state is told in the assay; also called reduced cyt c2; oxidized cyt c2; not shown: His6, C-terminal, kept"}},
  "conditions_in_all_cases": "both partners purified",
  "key": {"[1]": {"biological_target": "T1, N(M188)D mutant RC-LH1 complex, His10-tag on the RC H-subunit (Rhodobacter sphaeroides, UniProt P0C0Y7 1-260; P0C0Y8 1-282; P0C0Y9 1-308; P0C0X9 1-55; P0C0Y1 7-49; P13402 1-82, N(M188)D)", "assay": "single-molecule force spectroscopy (AFM, PF-QNM); cyt c2-His6 on the AFM probe via Ni2+-NTA and a PEG linker, His10-tagged RC-LH1 or RC-only complexes on a Ni2+-NTA SiOx substrate; oxidized RC, reduced cyt c2; 10 mM HEPES pH 7.4, 10 mM NaCl"}, "[2]": {"biological_target": "T2, Q(L264)E mutant RC-LH1 complex, His10-tag on the RC H-subunit (Rhodobacter sphaeroides, UniProt P0C0Y7 1-260; P0C0Y8 1-282; P0C0Y9 1-308; P0C0X9 1-55; P0C0Y1 7-49; P13402 1-82, Q(L264)E)", "assay": "single-molecule force spectroscopy (AFM, PF-QNM); cyt c2-His6 on the AFM probe via Ni2+-NTA and a PEG linker, His10-tagged RC-LH1 or RC-only complexes on a Ni2+-NTA SiOx substrate; oxidized RC, reduced cyt c2; 10 mM HEPES pH 7.4, 10 mM NaCl"}, "[3]": {"biological_target": "T3, D(M184)K mutant RC-LH1 complex, His10-tag on the RC H-subunit (Rhodobacter sphaeroides, UniProt P0C0Y7 1-260; P0C0Y8 1-282; P0C0Y9 1-308; P0C0X9 1-55; P0C0Y1 7-49; P13402 1-82, D(M184)K)", "assay": "single-molecule force spectroscopy (AFM, PF-QNM); cyt c2-His6 on the AFM probe via Ni2+-NTA and a PEG linker, His10-tagged RC-LH1 or RC-only complexes on a Ni2+-NTA SiOx substrate; oxidized RC, reduced cyt c2; 10 mM HEPES pH 7.4, 10 mM NaCl"}, "[4]": {"biological_target": "T4, wild-type reaction center-light harvesting complex 1 (RC-LH1), His10-tag on the RC H-subunit (Rhodobacter sphaeroides, UniProt P0C0Y7 1-260; P0C0Y8 1-282; P0C0Y9 1-308; P0C0X9 1-55; P0C0Y1 7-49; P13402 1-82)", "assay": "single-molecule force spectroscopy (AFM, PF-QNM); cyt c2-His6 on the AFM probe via Ni2+-NTA and a PEG linker, His10-tagged RC-LH1 or RC-only complexes on a Ni2+-NTA SiOx substrate; oxidized RC, reduced cyt c2; 10 mM HEPES pH 7.4, 10 mM NaCl"}, "[5]": {"biological_target": "T1, N(M188)D mutant RC-LH1 complex, …", "assay": "single-molecule force spectroscopy (AFM, PF-QNM); cyt c2-His6 on the AFM probe, His10-tagged RC-LH1 on the SiOx substrate; oxidized RC-LH1, oxidized cyt c2 (probe treated with 0.8 mM potassium ferricyanide); 10 mM HEPES pH 7.4, 10 mM NaCl"}, "[6]": {"biological_target": "T2, Q(L264)E mutant RC-LH1 complex, …", "assay": "single-molecule force spectroscopy (AFM, PF-QNM); cyt c2-His6 on the AFM probe, His10-tagged RC-LH1 on the SiOx substrate; oxidized RC-LH1, oxidized cyt c2 (probe treated with 0.8 mM potassium ferricyanide); 10 mM HEPES pH 7.4, 10 mM NaCl"}, "[7]": {"biological_target": "T3, D(M184)K mutant RC-LH1 complex, …", "assay": "single-molecule force spectroscopy (AFM, PF-QNM); cyt c2-His6 on the AFM probe, His10-tagged RC-LH1 on the SiOx substrate; oxidized RC-LH1, oxidized cyt c2 (probe treated with 0.8 mM potassium ferricyanide); 10 mM HEPES pH 7.4, 10 mM NaCl"}, "[8]": {"biological_target": "T4, wild-type reaction center-light …", "assay": "single-molecule force spectroscopy (AFM, PF-QNM); cyt c2-His6 on the AFM probe, His10-tagged RC-LH1 on the SiOx substrate; oxidized RC-LH1, oxidized cyt c2 (probe treated with 0.8 mM potassium ferricyanide); 10 mM HEPES pH 7.4, 10 mM NaCl"}},
  "data": [
    {"binder": "B1", "values": [
      {"measurement": "cumulative interaction probability", "setting": "[1]", "value": 40, "unit": "%"},
      {"measurement": "cumulative interaction probability", "setting": "[2]", "value": 39, "unit": "%"},
      {"measurement": "cumulative interaction probability", "setting": "[3]", "value": 24, "unit": "%"},
      {"measurement": "cumulative interaction probability", "setting": "[4]", "value": "~34", "unit": "%"},
      {"measurement": "cumulative interaction probability", "setting": "[5]", "value": 37, "unit": "%"},
      {"measurement": "cumulative interaction probability", "setting": "[6]", "value": 36, "unit": "%"},
      {"measurement": "cumulative interaction probability", "setting": "[7]", "value": 20, "unit": "%"},
      {"measurement": "cumulative interaction probability", "setting": "[8]", "value": 32, "unit": "%"}
    ]}
  ]
}
